Experimental data reported in publication PMC3285515.

Target: HSV-1 glycoprotein D (gD), wild type, on KOS/tk12 virions (HSV-1 (strain KOS)) (UniProt A1Z0Q5)
UniProt A1Z0Q5, sequence (A1Z0Q5 26-394): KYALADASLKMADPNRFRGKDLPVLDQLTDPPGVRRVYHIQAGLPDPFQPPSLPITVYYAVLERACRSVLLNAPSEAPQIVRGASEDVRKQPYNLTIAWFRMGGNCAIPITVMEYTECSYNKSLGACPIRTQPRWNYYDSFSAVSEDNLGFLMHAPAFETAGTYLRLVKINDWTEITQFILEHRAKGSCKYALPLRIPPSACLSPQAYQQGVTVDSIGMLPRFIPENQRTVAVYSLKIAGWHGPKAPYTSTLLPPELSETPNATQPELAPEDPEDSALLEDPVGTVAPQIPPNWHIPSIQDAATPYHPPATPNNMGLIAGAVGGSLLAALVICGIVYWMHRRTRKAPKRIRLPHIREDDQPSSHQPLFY

Question: Which sHA102-mediated KOS/tk12 infection of receptor-deficient CHO-K1 cells; sHA102 0-1,000 nM, MOI 3 and 9; ONPG assay and X-gal staining (percent of cells infected) (% of the cells infected) does the source give for “sHA102, soluble HVEM (HveA) protein containing the first two cysteine-rich pseudorepeats (N-terminal 102 amino acids of HVEM) (domain or fragment)” here?
Answer: 90 to 100
